The values that follow come from article PMC6677536 (2019).

In the assay the target is Full-length Panx, HA-tagged (UniProt Q9W2H9). Nature of the assay: FLAG-tag co-immunoprecipitation, western blot quantification. As to conditions: lysates of transfected S2 cells; parent: est. 0; read off a plot. In general terms: Immunoblotting shows a protein as a band on a membrane.
Sequence of Full-length Panx, HA-tagged (Q9W2H9 whole entry): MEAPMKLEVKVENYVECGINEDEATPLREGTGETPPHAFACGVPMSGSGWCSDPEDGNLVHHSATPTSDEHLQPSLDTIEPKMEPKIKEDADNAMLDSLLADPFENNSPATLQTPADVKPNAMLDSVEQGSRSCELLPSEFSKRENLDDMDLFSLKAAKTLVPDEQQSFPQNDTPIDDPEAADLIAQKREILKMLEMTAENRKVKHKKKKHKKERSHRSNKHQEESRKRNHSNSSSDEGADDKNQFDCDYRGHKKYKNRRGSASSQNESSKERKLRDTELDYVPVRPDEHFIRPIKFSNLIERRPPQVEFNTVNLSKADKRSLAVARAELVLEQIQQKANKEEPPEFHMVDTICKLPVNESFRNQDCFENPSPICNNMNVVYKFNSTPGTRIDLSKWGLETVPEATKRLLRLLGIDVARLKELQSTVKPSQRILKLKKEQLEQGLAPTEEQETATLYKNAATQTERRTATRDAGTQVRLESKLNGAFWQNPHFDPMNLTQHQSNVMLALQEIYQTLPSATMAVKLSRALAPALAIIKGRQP

Sequence of Full-length Nxf2, 3xFLAG-tagged (from UniProt Q9VV73) aa754-756 (NTF2 mut.2) (Q9VV73 whole entry, change not shown, the tested form may be a part): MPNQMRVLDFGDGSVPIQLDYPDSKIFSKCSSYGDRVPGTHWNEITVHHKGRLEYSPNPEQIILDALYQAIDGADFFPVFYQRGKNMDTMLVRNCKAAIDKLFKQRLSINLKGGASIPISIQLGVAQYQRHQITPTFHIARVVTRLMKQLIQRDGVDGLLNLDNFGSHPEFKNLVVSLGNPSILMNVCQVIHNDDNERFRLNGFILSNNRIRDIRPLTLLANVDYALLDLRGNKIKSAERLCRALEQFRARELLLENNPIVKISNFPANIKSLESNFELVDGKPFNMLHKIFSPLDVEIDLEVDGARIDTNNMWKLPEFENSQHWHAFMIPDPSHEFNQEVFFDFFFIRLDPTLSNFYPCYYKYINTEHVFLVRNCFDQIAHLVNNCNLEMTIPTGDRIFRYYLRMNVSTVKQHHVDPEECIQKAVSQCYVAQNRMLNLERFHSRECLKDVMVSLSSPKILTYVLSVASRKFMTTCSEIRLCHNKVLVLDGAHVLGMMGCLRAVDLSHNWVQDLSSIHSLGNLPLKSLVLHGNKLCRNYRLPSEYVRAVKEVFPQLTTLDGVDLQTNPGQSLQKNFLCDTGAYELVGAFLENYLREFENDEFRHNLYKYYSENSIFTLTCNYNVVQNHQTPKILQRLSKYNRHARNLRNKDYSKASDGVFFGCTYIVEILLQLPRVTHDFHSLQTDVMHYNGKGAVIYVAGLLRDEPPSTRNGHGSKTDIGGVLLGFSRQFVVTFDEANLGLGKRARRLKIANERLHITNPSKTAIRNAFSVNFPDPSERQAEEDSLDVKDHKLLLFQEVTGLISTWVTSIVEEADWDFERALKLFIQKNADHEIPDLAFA
Sequence of Full-length Nxf2, 3xFLAG-tagged (from UniProt Q9VV73) aa755-758 (NTF2 mut.3) (Q9VV73 whole entry, change not shown, the tested form may be a part): as above
Sequence of Full-length Nxf2, 3xFLAG-tagged (from UniProt Q9VV73) aa835-836 (UBA mut.2) (Q9VV73 whole entry, change not shown, the tested form may be a part): as above
Sequence of Full-length Nxf2, 3xFLAG-tagged (from UniProt Q9VV73) aa751-754 (NTF2 mut.1) (Q9VV73 whole entry, change not shown, the tested form may be a part): as above
Sequence of Full-length Nxf2, 3xFLAG-tagged (from UniProt Q9VV73) aa811-814 (UBA mut.1) (Q9VV73 whole entry, change not shown, the tested form may be a part): as above

“Full-length Nxf2, 3xFLAG-tagged (from UniProt Q9VV73) aa811-814 (UBA mut.1)”: the log10 ratio (log10 coIP index [arbitrary unit]) is -1.3. For the substance “Full-length Nxf2, 3xFLAG-tagged (from UniProt Q9VV73) aa751-754 (NTF2 mut.1)”, the log10 ratio (log10 coIP index [arbitrary unit]) is -0.55. In the case of “Full-length Nxf2, 3xFLAG-tagged (from UniProt Q9VV73) aa754-756 (NTF2 mut.2)”, the log10 ratio (log10 coIP index [arbitrary unit]) is -0.32. On to “Full-length Nxf2, 3xFLAG-tagged (from UniProt Q9VV73) aa755-758 (NTF2 mut.3)”, for which the log10 ratio (log10 coIP index [arbitrary unit]) is -0.3.

In the case of “Full-length Nxf2, 3xFLAG-tagged (from UniProt Q9VV73) aa835-836 (UBA mut.2)”, the log10 ratio (log10 coIP index [arbitrary unit]) was -0.5.
